# Measured values reported in US20250197514A1 (INTERVET, published 2025).
# T1: canine FcRn heterodimer (FCGRT large subunit p51 + beta-2-microglobulin), biotin-labeled (Canis lupus familiaris; Canis familiaris, biotin-labeled (site not stated; the chain carries an AviTag))
# T1 construct: also called FcRn/B2M; FcRn/β2M; not shown: AviTag, named only
# T1 chain (part 1 of 2): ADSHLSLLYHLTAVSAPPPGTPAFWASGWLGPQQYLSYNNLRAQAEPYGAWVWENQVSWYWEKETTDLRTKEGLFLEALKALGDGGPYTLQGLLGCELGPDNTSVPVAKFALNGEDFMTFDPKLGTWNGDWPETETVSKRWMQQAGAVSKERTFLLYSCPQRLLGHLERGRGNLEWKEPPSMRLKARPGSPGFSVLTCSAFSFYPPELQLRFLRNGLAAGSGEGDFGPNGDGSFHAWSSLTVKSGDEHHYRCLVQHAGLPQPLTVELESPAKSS
# T1 chain (part 2 of 2): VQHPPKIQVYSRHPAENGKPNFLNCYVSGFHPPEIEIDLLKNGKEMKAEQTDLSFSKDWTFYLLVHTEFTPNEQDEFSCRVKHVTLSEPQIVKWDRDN
# Tests used:
# [1] = biological target: T1, canine FcRn heterodimer (FCGRT large …); assay: BLI (Octet HTX), biotinylated FcRn/B2M on streptavidin biosensors, analyte 500-7.8 nM, pH 7.4, 1:1 fit
# Experimental: (§1) The binding of antibodies and IgG Fc fusion proteins to FcRn proteins was determined by Octet™ HTX using Streptavidin (SA) biosensors. First, biotin-labeled […] was loaded onto pre-hydrated SA biosensors for 60 s at a concentration of 10 μg/mL. Second, the biosensors were placed into pH 6.0 TBS/Casein buffer for the blocking phase for 180 s. Third, for the association phase, FcRn/B2M loaded biosensors were placed into 2-fold serial dilutions from 500 nM down to 7.8 nM of antibody or IgG Fc fusion protein in pH 6.0 or 7.4 TBS/Casein buffer for 15 s. Finally, the biosensors were placed into either pH 6.0 or pH 7.4 TBS/Casein buffer for the dissociation phase for 60 s. Analysis was performed using Octet Data Analysis 12.0 software and curves were fitted using a 1:1 binding model.
# [2] = biological target: T1, canine FcRn heterodimer (FCGRT large …); assay: BLI (Octet HTX), biotinylated FcRn/B2M on streptavidin biosensors, analyte 500-7.8 nM, pH 6.0, 1:1 fit
# Experimental: as §1
Binder,Kd [1] [nM],Kd [2] [nM]
"cIL-13Ra2-Fc (unsubstituted canine IL-13Rα2 ECD - cIgG-B hinge - cIgG-B Fc fusion protein) (Fc fusion, also called cIL-13Rα2-cIgGB-Fc; substitution: None) SMLSNAEIKVNPPQDFEIVDPGYLGYLSLQWQPPLFPDNFKECTIEYELKYRNIDSENWKTIITKNLHYKDGFDLNKGIEAKINTLLPAQCTNGSEVRSSWAETTYWTSPQGNRETKIQDMDCVYYNWQYLVCSWKPGMGVHFDTNYQLFYWYEGLDHSAECTDYIKVNGKNMGCRFPYLESSDYKDFYICVNGSSESQPIRPSYFIFQLQNIVKPMPPDYLSLTVKNSEEINLKWNMPKGPIPAKCFIYEIEFTEDGTTWVTTTVENEIQITRTSNESQKLCFLVRSKVNIYCSDDGIWSEWSDEQCWKGDIWKETPKRENGRVPRPPDCPKCPAPEMLGGPSVFIFPPKPKDTLLIARTPEVTCVVVDLDPEDPEVQISWFVDGKQMQTAKTQPREEQFNGTYRVVSVLPIGHQDWLKGKQFTCKVNNKALPSPIERTISKARGQAHQPSVYVLPPSREELSKNTVSLTCLIKDFFPPDIDVEWQSNGQQEPESKYRTTPPQLDEDGSYFLYSKLSVDKSRWQRGDTFICAVMHEALHNHYTQESLSHSPGK",7020,16.9
"cIL-13Rα2-cIgGB-Fc-F (Fc fusion, also called cIL-13Ra2-cIgGB-Fc-F; N434F) SMLSNAEIKVNPPQDFEIVDPGYLGYLSLQWQPPLFPDNFKECTIEYELKYRNIDSENWKTIITKNLHYKDGFDLNKGIEAKINTLLPAQCTNGSEVRSSWAETTYWTSPQGNRETKIQDMDCVYYNWQYLVCSWKPGMGVHFDTNYQLFYWYEGLDHSAECTDYIKVNGKNMGCRFPYLESSDYKDFYICVNGSSESQPIRPSYFIFQLQNIVKPMPPDYLSLTVKNSEEINLKWNMPKGPIPAKCFIYEIEFTEDGTTWVTTTVENEIQITRTSNESQKLCFLVRSKVNIYCSDDGIWSEWSDEQCWKGDIWKETPKRENGRVPRPPDCPKCPAPEMLGGPSVFIFPPKPKDTLLIARTPEVTCVVVDLDPEDPEVQISWFVDGKQMQTAKTQPREEQFNGTYRVVSVLPIGHQDWLKGKQFTCKVNNKALPSPIERTISKARGQAHQPSVYVLPPSREELSKNTVSLTCLIKDFFPPDIDVEWQSNGQQEPESKYRTTPPQLDEDGSYFLYSKLSVDKSRWQRGDTFICAVMHEALHFHYTQESLSHSPGK",229,0.93
"cIL-13Rα2-cIgGB-Fc-DPY (Fc fusion, also called cIL-13Ra2-cIgGB-Fc-DPY; T256D/I308P/N434Y) SMLSNAEIKVNPPQDFEIVDPGYLGYLSLQWQPPLFPDNFKECTIEYELKYRNIDSENWKTIITKNLHYKDGFDLNKGIEAKINTLLPAQCTNGSEVRSSWAETTYWTSPQGNRETKIQDMDCVYYNWQYLVCSWKPGMGVHFDTNYQLFYWYEGLDHSAECTDYIKVNGKNMGCRFPYLESSDYKDFYICVNGSSESQPIRPSYFIFQLQNIVKPMPPDYLSLTVKNSEEINLKWNMPKGPIPAKCFIYEIEFTEDGTTWVTTTVENEIQITRTSNESQKLCFLVRSKVNIYCSDDGIWSEWSDEQCWKGDIWKETPKRENGRVPRPPDCPKCPAPEMLGGPSVFIFPPKPKDTLLIARDPEVTCVVVDLDPEDPEVQISWFVDGKQMQTAKTQPREEQFNGTYRVVSVLPPGHQDWLKGKQFTCKVNNKALPSPIERTISKARGQAHQPSVYVLPPSREELSKNTVSLTCLIKDFFPPDIDVEWQSNGQQEPESKYRTTPPQLDEDGSYFLYSKLSVDKSRWQRGDTFICAVMHEALHYHYTQESLSHSPGK",19.8,0.34
"cIL-13Rα2-cIgGB-Fc-KYT (Fc fusion, also called cIL-13Ra2-cIgGB-Fc-KYT; H433K/N434Y/Y436T) SMLSNAEIKVNPPQDFEIVDPGYLGYLSLQWQPPLFPDNFKECTIEYELKYRNIDSENWKTIITKNLHYKDGFDLNKGIEAKINTLLPAQCTNGSEVRSSWAETTYWTSPQGNRETKIQDMDCVYYNWQYLVCSWKPGMGVHFDTNYQLFYWYEGLDHSAECTDYIKVNGKNMGCRFPYLESSDYKDFYICVNGSSESQPIRPSYFIFQLQNIVKPMPPDYLSLTVKNSEEINLKWNMPKGPIPAKCFIYEIEFTEDGTTWVTTTVENEIQITRTSNESQKLCFLVRSKVNIYCSDDGIWSEWSDEQCWKGDIWKETPKRENGRVPRPPDCPKCPAPEMLGGPSVFIFPPKPKDTLLIARTPEVTCVVVDLDPEDPEVQISWFVDGKQMQTAKTQPREEQFNGTYRVVSVLPIGHQDWLKGKQFTCKVNNKALPSPIERTISKARGQAHQPSVYVLPPSREELSKNTVSLTCLIKDFFPPDIDVEWQSNGQQEPESKYRTTPPQLDEDGSYFLYSKLSVDKSRWQRGDTFICAVMHEALKYHTTQESLSHSPGK",253,2.58

# More lines, now with the values ahead:
Kd [1] [nM],Kd [2] [nM],Binder
363,6.59,"cIL-13Ra2-Fc-YTE (Fc fusion, also called L252Y/A254T/T256E) SMLSNAEIKVNPPQDFEIVDPGYLGYLSLQWQPPLFPDNFKECTIEYELKYRNIDSENWKTIITKNLHYKDGFDLNKGIEAKINTLLPAQCTNGSEVRSSWAETTYWTSPQGNRETKIQDMDCVYYNWQYLVCSWKPGMGVHFDTNYQLFYWYEGLDHSAECTDYIKVNGKNMGCRFPYLESSDYKDFYICVNGSSESQPIRPSYFIFQLQNIVKPMPPDYLSLTVKNSEEINLKWNMPKGPIPAKCFIYEIEFTEDGTTWVTTTVENEIQITRTSNESQKLCFLVRSKVNIYCSDDGIWSEWSDEQCWKGDIWKETPKRENGRVPRPPDCPKCPAPEMLGGPSVFIFPPKPKDTLYITREPEVTCVVVDLDPEDPEVQISWFVDGKQMQTAKTQPREEQFNGTYRVVSVLPIGHQDWLKGKQFTCKVNNKALPSPIERTISKARGQAHQPSVYVLPPSREELSKNTVSLTCLIKDFFPPDIDVEWQSNGQQEPESKYRTTPPQLDEDGSYFLYSKLSVDKSRWQRGDTFICAVMHEALHNHYTQESLSHSPGK"
414,0.97,"cIL-13Rα2-cIgGB-Fc-KF (Fc fusion, also called cIL-13Ra2-cIgGB-Fc-KF; H433K/N434F) SMLSNAEIKVNPPQDFEIVDPGYLGYLSLQWQPPLFPDNFKECTIEYELKYRNIDSENWKTIITKNLHYKDGFDLNKGIEAKINTLLPAQCTNGSEVRSSWAETTYWTSPQGNRETKIQDMDCVYYNWQYLVCSWKPGMGVHFDTNYQLFYWYEGLDHSAECTDYIKVNGKNMGCRFPYLESSDYKDFYICVNGSSESQPIRPSYFIFQLQNIVKPMPPDYLSLTVKNSEEINLKWNMPKGPIPAKCFIYEIEFTEDGTTWVTTTVENEIQITRTSNESQKLCFLVRSKVNIYCSDDGIWSEWSDEQCWKGDIWKETPKRENGRVPRPPDCPKCPAPEMLGGPSVFIFPPKPKDTLLIARTPEVTCVVVDLDPEDPEVQISWFVDGKQMQTAKTQPREEQFNGTYRVVSVLPIGHQDWLKGKQFTCKVNNKALPSPIERTISKARGQAHQPSVYVLPPSREELSKNTVSLTCLIKDFFPPDIDVEWQSNGQQEPESKYRTTPPQLDEDGSYFLYSKLSVDKSRWQRGDTFICAVMHEALKFHYTQESLSHSPGK"
626,7.55,"cIL-13Rα2-cIgGB-Fc-K (Fc fusion, also called cIL-13Ra2-cIgGB-Fc-K; H433K) SMLSNAEIKVNPPQDFEIVDPGYLGYLSLQWQPPLFPDNFKECTIEYELKYRNIDSENWKTIITKNLHYKDGFDLNKGIEAKINTLLPAQCTNGSEVRSSWAETTYWTSPQGNRETKIQDMDCVYYNWQYLVCSWKPGMGVHFDTNYQLFYWYEGLDHSAECTDYIKVNGKNMGCRFPYLESSDYKDFYICVNGSSESQPIRPSYFIFQLQNIVKPMPPDYLSLTVKNSEEINLKWNMPKGPIPAKCFIYEIEFTEDGTTWVTTTVENEIQITRTSNESQKLCFLVRSKVNIYCSDDGIWSEWSDEQCWKGDIWKETPKRENGRVPRPPDCPKCPAPEMLGGPSVFIFPPKPKDTLLIARTPEVTCVVVDLDPEDPEVQISWFVDGKQMQTAKTQPREEQFNGTYRVVSVLPIGHQDWLKGKQFTCKVNNKALPSPIERTISKARGQAHQPSVYVLPPSREELSKNTVSLTCLIKDFFPPDIDVEWQSNGQQEPESKYRTTPPQLDEDGSYFLYSKLSVDKSRWQRGDTFICAVMHEALKNHYTQESLSHSPGK"
7210,12.3,"cIL-13Rα2-cIgGB-Fc-L (Fc fusion, also called cIL-13Ra2-cIgGB-Fc-L; H433L) SMLSNAEIKVNPPQDFEIVDPGYLGYLSLQWQPPLFPDNFKECTIEYELKYRNIDSENWKTIITKNLHYKDGFDLNKGIEAKINTLLPAQCTNGSEVRSSWAETTYWTSPQGNRETKIQDMDCVYYNWQYLVCSWKPGMGVHFDTNYQLFYWYEGLDHSAECTDYIKVNGKNMGCRFPYLESSDYKDFYICVNGSSESQPIRPSYFIFQLQNIVKPMPPDYLSLTVKNSEEINLKWNMPKGPIPAKCFIYEIEFTEDGTTWVTTTVENEIQITRTSNESQKLCFLVRSKVNIYCSDDGIWSEWSDEQCWKGDIWKETPKRENGRVPRPPDCPKCPAPEMLGGPSVFIFPPKPKDTLLIARTPEVTCVVVDLDPEDPEVQISWFVDGKQMQTAKTQPREEQFNGTYRVVSVLPIGHQDWLKGKQFTCKVNNKALPSPIERTISKARGQAHQPSVYVLPPSREELSKNTVSLTCLIKDFFPPDIDVEWQSNGQQEPESKYRTTPPQLDEDGSYFLYSKLSVDKSRWQRGDTFICAVMHEALLNHYTQESLSHSPGK"
91.8,0.87,"cIL-13Rα2-cIgGB-Fc-DY (Fc fusion, also called cIL-13Ra2-cIgGB-Fc-DY; T256D/N434Y) SMLSNAEIKVNPPQDFEIVDPGYLGYLSLQWQPPLFPDNFKECTIEYELKYRNIDSENWKTIITKNLHYKDGFDLNKGIEAKINTLLPAQCTNGSEVRSSWAETTYWTSPQGNRETKIQDMDCVYYNWQYLVCSWKPGMGVHFDTNYQLFYWYEGLDHSAECTDYIKVNGKNMGCRFPYLESSDYKDFYICVNGSSESQPIRPSYFIFQLQNIVKPMPPDYLSLTVKNSEEINLKWNMPKGPIPAKCFIYEIEFTEDGTTWVTTTVENEIQITRTSNESQKLCFLVRSKVNIYCSDDGIWSEWSDEQCWKGDIWKETPKRENGRVPRPPDCPKCPAPEMLGGPSVFIFPPKPKDTLLIARDPEVTCVVVDLDPEDPEVQISWFVDGKQMQTAKTQPREEQFNGTYRVVSVLPIGHQDWLKGKQFTCKVNNKALPSPIERTISKARGQAHQPSVYVLPPSREELSKNTVSLTCLIKDFFPPDIDVEWQSNGQQEPESKYRTTPPQLDEDGSYFLYSKLSVDKSRWQRGDTFICAVMHEALHYHYTQESLSHSPGK"
